Data published in US20180022794A1 (INSERM INSTITUT NATIONAL DE LA SANTE ET DE LA RECHERCHE …, published 2018).

B1: B6 hs2dAb (VHH)
VHH: VQLQASGGGFVQPGGSLRLSCAASGYGSTIETMGWFRQAPGKEREFVSAISRAPGPSQYYADSVKGRFTISRDNSKNTVYLQMNSLRAEDTATYYCAPINNRTMQDSMFLWNYWGQGTQVTVSS
notes: also called hs2dAb B6
B2: H12 hs2dAb (VHH)
VHH: VQLQASGGGFVQPGGSLRLSCAASGDGSRIYAMGWFRQAPGKEREFVSAISWEQDWEHYYADSVKGRFTISRDNSKNTVYLQMNSLRAEDTATYYCAAFMTPHRNLTSMYWGQGTQVTVSS
notes: Humanized synthetic single domain antibody; Soluble form was used in ELISA and immunofluorescence and detected through a myc tag; also called clone H12; H12 antibody
B3: 5SNP65 hs2dAb (VHH)
VHH: VQLQASGGGFVQPGGSLRLSCAASGATYEGEAMGWFRQAPGKEREFVSAISSYPSVISYYADSVKGRFTISRDNSKNTVYLQMNSLRAEDTATYYCAYWVNHEGTIREIYWGQGTQVTVSS
B4: 5SNP48 hs2dAb (VHH)
VHH: VQLQASGGGFVQPGGSLRLSCAASGTSWFTEVMGWFRQAPGKEREFVSAISGLHDVGTYYADSVKGRFTISRDNSKNTVYLQMNSLRAEDTATYYCAALDKWYTKAMDARKDYWGQGTQVTVSS
B5: 4SNP61 hs2dAb (VHH)
VHH: VQLQASGGGFVQPGGSLRLSCAASGFTSTSTVMGWFRQAPGKEREFVSAISSAHTMDTYYADSVKGRFTISRDNSKNTVYLQMNSLRAEDTATYYCAPAPMLGQMITQPALPYWGQGTQVTVSS

What was measured:
Assay in all cases: binding kinetics, method not stated (Table 1)
RhoC Q63L = target: T1, RhoC Q63L (UniProt P08134 1-190, limits assumed)
T1 construct: also called RhoC Q63L (2SHA); constitutively active RhoC mutant
T1 sequence (P08134 1-190 Q63L limits assumed): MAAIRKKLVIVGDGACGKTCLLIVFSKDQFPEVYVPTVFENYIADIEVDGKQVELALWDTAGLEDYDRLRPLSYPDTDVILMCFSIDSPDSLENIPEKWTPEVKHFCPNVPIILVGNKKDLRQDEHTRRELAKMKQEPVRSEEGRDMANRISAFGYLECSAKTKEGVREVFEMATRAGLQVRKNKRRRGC

RhoA Q63L = target: T2, RhoA Q63L (UniProt P61586 1-190, limits assumed)
T2 construct: also called RhoA Q63L (2SHA); constitutively active RhoA mutant
T2 sequence (P61586 1-190 Q63L limits assumed): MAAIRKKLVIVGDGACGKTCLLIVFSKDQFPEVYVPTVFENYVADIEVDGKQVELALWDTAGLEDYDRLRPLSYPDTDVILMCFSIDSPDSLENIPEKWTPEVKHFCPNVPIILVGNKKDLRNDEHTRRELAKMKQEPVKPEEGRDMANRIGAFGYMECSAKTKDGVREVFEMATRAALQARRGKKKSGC

RhoB Q63L = target: T3, RhoB Q63L (UniProt P62745 1-193, limits assumed)
T3 construct: also called RhoB Q63L (2SHA); constitutively active RhoB mutant
T3 sequence (P62745 1-193 Q63L limits assumed): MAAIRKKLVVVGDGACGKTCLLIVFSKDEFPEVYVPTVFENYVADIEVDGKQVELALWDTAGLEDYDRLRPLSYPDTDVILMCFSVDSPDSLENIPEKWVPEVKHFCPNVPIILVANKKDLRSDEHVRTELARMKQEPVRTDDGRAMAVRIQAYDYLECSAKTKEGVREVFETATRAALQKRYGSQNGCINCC

Rac Q61L = Rac Q61L (UniProt P63000 1-189)

Row | Binder | Kd (RhoC Q63L) [nM] | koff (RhoC Q63L) [s⁻¹] | kon (RhoC Q63L) [M⁻¹ s⁻¹] | Kd (RhoA Q63L) [nM] | koff (RhoA Q63L) [s⁻¹] | kon (RhoA Q63L) [M⁻¹ s⁻¹] | Kd (RhoB Q63L) [nM] | koff (RhoB Q63L) [s⁻¹] | kon (RhoB Q63L) [M⁻¹ s⁻¹] | Kd (Rac Q61L) [nM] | koff (Rac Q61L) [s⁻¹] | kon (Rac Q61L) [M⁻¹ s⁻¹]
1 | B1 | 2.32 | 0.000625 | 1.45e+06 | 1.31 | 0.0008 | 1.05e+06 | – | – | – | – | – | –
2 | B2 | – | – | – | – | – | – | 1.57 | 0.000359 | 224000 | 0.33 | 0.000255 | 753000
3 | B3 | 0.608 | 0.001 | 1.71e+06 | 0.6 | 0.000522 | 870000 | 2.36 | 0.000599 | 253000 | – | – | –
4 | B4 | 0.524 | 0.000901 | 1.72e+06 | 0.84 | 0.000686 | 814000 | 5.21 | 0.0024 | 462000 | – | – | –
5 | B5 | 5.3 | 0.0046 | 875000 | 1.21 | 0.0013 | 1.1e+06 | 4.68 | 0.0033 | 722000 | – | – | –
